Test results reported in patent publication US10705101B2, “Determination of the unbound free fatty acid profiles in biological and industrial specimens” (priority 2013, dated 2020).

How the values were obtained:
[1] = FFAu profiles in plasma of rats infused with nicotinic acid and different oils; assay type: in vivo; settings: rat plasma
Experimental: The 5 panels from top to bottom are: A: saline, B: nicotinic acid, C: nicotinic acid+safflower oil, D: nicotinic acid+olive oil, and E: nicotinic acid+coconut oil.
That the FFAu profiles are determined accurately by the method of the present invention is determined by infusing into the blood circulation, of animals and potentially in human subjects, oil/lipid emulsions of known composition, together with heparin. The oils are hydrolyzed by lipoprotein lipases that are released from the capillary endothelial cells by heparin. This lipase activity releases FFAu from the oil that is characteristic of the oil's known composition. Comparing FFAu profiles determined before and after infusion allows determination of the oil composition overlayed on the plasma matrix. Comparing results with different oils and at different levels assesses the validity of the method for determining FFAu profiles in blood samples (for example FIG. 2).
Results are averages of 7 animals for each condition. Nicotinic acid inhibits hormone sensitive lipase (HSL) in adipose tissue resulting in a reduction in circulating FFA levels. Whereas infusion of emulsions of oils of different compositions, together with heparin to activate lipoprotein lipase, will result in the increase of plasma FFA that reflect the composition of the infused oils. When infused together NA and oils results in FFAu profiles that are a conflation of the two effects. […] Adding NA reduces all FFAu except AA which becomes the dominant fraction at nearly 50%. […] NA plus coconut oil results in LAU and MA contributing over 90% of the total FFAu (total FFAu=sum of the concentrations of each of the 9 resolved FFAu). NA plus olive oil results in OA as the dominant FFAu but just barely because NA reduces baseline OA to zero and baseline LA is substantially larger than OA. Thus the FFAu profiles that result from NA plus oil are consistent with the conflation of the two effects. […] Whereas the amount of safflower and coconut oil infused increased the total FFAu to 42 and 92 nM, respectively, consistent with their dominant effects as compared to olive oil (FFAu total=8 nM).

[2] = Probe calibration by titration with FFA / FFA-BSA complexes: DHA; assay type: binding; settings: equilibrium dissociation constant of probe for DHA
Experimental: (§1) Calibration: Each probe is calibrated to the extent that the constants in Equation 2 are well determined for all FFAu to be included in profile calculations. Equation 2, which is the form of equation 1 for a single FFAu, relates the FFAu concentration to the equilibrium dissociation constant (Kd), fluorometric constants (Q and Rm) and the measured R values.
(§2) The calibration parameters are determined essentially as described in U.S. Pat. No. 7,601,510 which is incorporated herein by reference and (Huber et al Biochemistry (2006) 45:14263-14274) where the calibrated ADIFAB2 probe was used to generate FFA-BSA complexes with accurate and well buffered FFAu concentrations. To calibrate probes with substantially higher affinities than used in U.S. Pat. No. 7,601,510 and (Huber et al Biochemistry (2006) 45:14263-14274) a boot strap method is used in which a probe having higher affinities is calibrated with ADTFAB2. Such a probe is then used to generate FFA-BSA complexes with FFAu concentrations from 0.1 to 10 nM and these complexes are then used to calibrate other high affinity probes.
(§3) Probe calibration involves titrating the probes with either (i) un-buffered FFA or (ii) BSA-buffered FFA stocks. The un-buffered titrations involve measuring the R-value of a 1 μM probe solution as it is slowly titrated to saturation with small aliquots of a 100 to 250 μM FFA stock (Richieri G V et al. (1992) J Biol Chem 267: 23495-23501, Richieri G V et al. (1999) Mol Cell Biochem 192: 87-94). In this case, the total FFA concentration for each point in the titration is known and a nonlinear fit to the titration data yields the full set of fluorometric constants. In an un-buffered FFA titration, probe concentration is a key variable because the probe binds FFA, directly affecting the FFAu value.
(§4) Alternatively, in a BSA-buffered FFA calibration, the probe solution is titrated with a series of FFA-BSA complexes (600 μM BSA with [FFAu] ranging from 0.1 nM to 4 μM). The titration samples are FFA-BSA complex diluted 50-fold in Measuring Buffer. Probe is added to a concentration of 0.5 μM and the R-value is measured. Because BSA buffers FFAu, its concentration remains constant (i.e. known), even after the addition of probe. […] At least two calibrations with each of the up to 15 different FFA are performed for each probe.
(§5) All of the probes reveal substantial differences for different FFAu and in many cases these differences are related to the aqueous solubility of the FFA. For example, of the FFA in Table 3, SA is the least soluble and MA the most soluble. As discussed in (Richieri G V et al (2000) Biochemistry 39: 7197-7204) the tendency of natural proteins and FABPs, in particular, is for binding constants to be largest (smallest Kd) for the least soluble FFA and conversely for the most soluble FA. In two cases, ADIFAB2 and L11, Kd for SA is substantially the smallest and MA the largest and that pattern is more or less maintained for most of the other probes in Table3 with the exception of L83. In that case MA has the largest affinity while SA's more than 10 fold smaller. To some extent the other calibrations constants follow that behavior; Q is largest for the smallest Kd and Rmax is often largest, so that the probe response tends to be larger for FFA with the larger affinities. The ability to generate mutations that overcome the “natural thermodynamics” allows for probes that have a wide range of specificities and sensitivities than enable the determination of FFAu profiles.

[3] = Probe calibration by titration with FFA / FFA-BSA complexes: LNA; assay type: binding; settings: equilibrium dissociation constant of probe for LNA
Experimental: as §1, §2, §3, §4, §5

[4] = Probe response (increase in R) to 1 nM SA; assay type: binding; settings: 1 nM of SA, FIG. 1
Source text: The set of probes chosen to determine the profile of a sample depends upon the nature of the sample, the types of FFA expected to be present in the sample and the determination that the chosen probes respond to the expected FFA. In addition, especially for the least abundant FFAu in a sample, the probe's sensitivity for a given FFAu must be sufficient to accurately quantitate the low concentration FFAu, for example less than 50 pM. Sensitivity is a function of the Kd, Q, Ro and Rm parameters. Differences in sensitivity among different FFAu probes are apparent in FIG. 1 where for example for ADIFAB2 (acrylodan labeled at lysine 27), 1 nM of SA produces a 20% increase in R while for L11P7B3V26C the increases is almost 500%. […] In the absence of absolutely specific and sensitive probes the determination of FFAu profiles requires an over determined system, which empirically requires about twice the number of probes as FFAu to obtain accurate profiles. The identity of the set of probes to achieve accurate FFAu profiles is not unique. […]
The response profile is the fluorescence change as evaluated as (R−Ro)/Ro (ΔR/Ro) for each FFAu added as a complex of the FFA and albumin so that the FFAu concentration is clamped or buffered at 1 nM for every FFAu for which a calibration has been performed. […]

[5] = Probe calibration by titration with FFA / FFA-BSA complexes: POA; assay type: binding; settings: equilibrium dissociation constant of probe for POA
Experimental: as §1, §2, §3, §4, §5

[6] = Probe calibration by titration with FFA / FFA-BSA complexes: LA; assay type: binding; settings: equilibrium dissociation constant of probe for LA
Experimental: as §1, §2, §3, §4, §5

[7] = Probe calibration by titration with FFA / FFA-BSA complexes: PA; assay type: binding; settings: equilibrium dissociation constant of probe for PA
Experimental: as §1, §2, §3, §4, §5

[8] = Probe calibration by titration with FFA / FFA-BSA complexes: MA; assay type: binding; settings: equilibrium dissociation constant of probe for MA
Experimental: as §1, §2, §3, §4, §5

[9] = Probe calibration by titration with FFA / FFA-BSA complexes: AA; assay type: binding; settings: equilibrium dissociation constant of probe for AA
Experimental: as §1, §2, §3, §4, §5

[10] = Probe calibration by titration with FFA / FFA-BSA complexes: SA; assay type: binding; settings: equilibrium dissociation constant of probe for SA; read-out: Kd SA
Experimental: as §1, §2, §3, §4, §5

[11] = Probe calibration by titration with FFA / FFA-BSA complexes: OA; assay type: binding; settings: equilibrium dissociation constant of probe for OA
Experimental: as §1, §2, §3, §4, §5

With O=C(O)c1cccnc1 [NA, nicotinic acid] the “AA fraction of FFAu profile” value [1] was ~50%, the “baseline OA” value [1] was “zero” and the “total FFAu” value ([1]; sum of 9 resolved FFAu, averages of 7 animals) was 2 nM. The “reduction of total FFAu” value ([1]; versus saline, no infused oil) was “more than 4 fold”.

B1: ADIFAB2: acrylodan-labeled (lysine 27) mutant FABP probe: L72A (protein, UniProt P02693 2-132, looked up, variant L72A)
Fatty acid-binding protein, …: AFDGTWKVDRNENYEKFMEKMGINVVKRKLGAHDNLKLTITQEGNKFTVKESSNFRNIDVVFELGVDFAYSAADGTELTGTWTMEGNKLVGKFKRVDNGKELIAVREISGNELIQTYTYEGVEAKRIFKKE
modifications: acrylodan label on K27
notes: acrylodan-labeled (lysine 27) mutant FABP probe: L72A
For B1, the Kd [2] was 253 nM, the Kd [3] was 237 nM and the “increase in R” value [4] was 20%. It also gave a Kd [5] of 257 nM, a Kd [6] of 101 nM and a Kd [7] of 21.4 nM. It also gave a Kd [8] of 324 nM, a Kd [9] of 167 nM and a Kd [10] of 9.3 nM. For the same molecule, the Kd [11] was 32 nM.

B2: L2P22 G6: acrylodan-labeled mutant FABP probe: M18I, G31Y, A73G (protein, UniProt P02693 2-132, looked up, variant M18I G31Y A73G)
Fatty acid-binding protein, …: AFDGTWKVDRNENYEKFIEKMGINVVKRKLYAHDNLKLTITQEGNKFTVKESSNFRNIDVVFELGVDFAYSLGDGTELTGTWTMEGNKLVGKFKRVDNGKELIAVREISGNELIQTYTYEGVEAKRIFKKE
modifications: acrylodan label
notes: acrylodan-labeled mutant FABP probe: M18I, G31Y, A73G
In the case of B2, the Kd [2] is reported as 206 nM, the Kd [3] is reported as 89 nM and the Kd [5] is reported as 87.9 nM. It also gave a Kd [6] of 42.2 nM, a Kd [7] of 5.6 nM and a Kd [8] of 47.8 nM. For the same molecule, the Kd [9] was 90.6 nM, the Kd [10] was 17.6 nM and the Kd [11] was 33.9 nM.
